# Test results as given in patent publication US20230287088A1.
# Residue numbers refer to the chain shown, from its start. Read-outs that look alike come from different tables or passages of the source.
# B1: P043.A.00047.H08 (protein sample ID 447) (antibody, V domains shown)
# VH: QSLEESGGDLVKPGASLTLTCTASGFSFSSDGMCWVRQAPGKGLEWIACIAAGSSGSTYYATWAQGRFTISKSSSTTVTLQMTSLTAADTATYFCAGEDYTGNNYYALWGPGTLVTVSS
# VL: AIDMTQTPSPVSAVVGDTVTINCQASENIYSFLAWYQQKPGQPPKLLIYFASKLASGVPSRFKGSGSGTQFTLTISDVHSDDAAIYYCQQTGTYSDADNTFGGGTEVVVK
# B2: 465: LC of anti-S1 antibody with a C-terminal fusion of a scFv of P043.A.00017.E07 (bispecific antibody)
# heavy: QMQLVQSGTEVKKPGESLKISCKGSGYGFITYWIGWVRQMPGKGLEWMGIIYPGDSETRYSPSFQGQVTISADKSINTAYLQWSSLKASDTAIYYCAGGSGISTPMDVWGQGTTVTVASTKGPSVFPLAPSSKSTSGGTAALGCLVKDYFPEPVTVSWNSGALTSGVHTFPAVLQSSGLYSLSSVVTVPSSSLGTQTYICNVNHKPSNTKVDKRVEPKSCDKTHTCPPCPAPEAAGGPSVFLFPPKPKDTLMISRTPEVTCVVVDVSHEDPEVKFNWYVDGVEVHNAKTKPREEQYNSTYRVVSVLTVLHQDWLNGKEYKCKVSNKALPAPIEKTISKAKGQPREPQVYTLPPSREEMTKNQVSLTCLVKGFYPSDIAVEWESNGQPENNYKTTPPVLDSDGSFFLYSKLTVDKSRWQQGNVFSCSVLHEALHSHYTQKSLSLSPGK
# light: not shown
# B3: 467: LC of anti-S1 antibody with a C-terminal fusion of a scFv of P043.A.00024.C11 (bispecific antibody)
# heavy: B2 heavy
# light: not shown
# B4: P043.A.00092.C12 (antibody)
# heavy chain: QEELKETGGGLVQPGGSLTLSCKASGFDFSSYYMSWVRQAPGKGLEWIGVIYASKGSTDYASWVNGRFTISSDNAQNTVDLQMNSLTAADTATYYCARSKRFYTYGYAGYAYAHYYYGMDLWGPGTLVTVSS
# light chain: AIQMTQSPSSLAASVGDTVTITCKASEDIGYGLNWYQQKLGIAPKLLIYGADTLESGVPSRFSGSGSETDYTLTISSVQAEDAGIYYCQQGYSTPLTFGAGTKVEIK
# B5: P043.A.00023.E05 (antibody)
# heavy chain: QSLEESGGRLVTPGTPLTLTCTVSGFSLSSYAMSWVRQAPGKGLEWIGIISSSGSTYYASWAKGRFTISKTSTTVDLKITSPTTEDTATYFCARDASSRGYYYYYGMDPWGPGTLVTVSS
# light chain: B4 light chain with D52N
# B6: P043.A.00024.C11 (protein sample ID 451) (antibody, V domains shown)
# VH: B5 heavy chain with L3V, S55T, R65P, D95G, A96G, S97A, S98G, R99Y, Y102A, Y103H
# VL: B4 light chain with D52N
# B7: P043.A.00017.E04 (antibody)
# heavy chain: QSVEESGGRLVTPGTPLTLTCTVSGFSLNNYAMNWVRQAPGKGLEWIGIISSSGNTYYANWAKGRFTISKTSTTVDLKITSPTTEDTATYFCARDSYPGYSPYYGMDPWGPGTLVTVSS
# light chain: B4 light chain with G30A, A43T, D52N, D70H, S93N, L96P
# B8: P043.A.00097.B02 (antibody)
# heavy chain: QELVESGGGLVQAGESLKLSCKASGIDFSSYGISWVRQAPGKGLEWIAYIYPGFGITNYANSVKGRFTISSDNAQNTVFLQMTSLTASDTATYFCTRAYASSSGYYIHYFNLWGPGTLVTVSS
# light chain: B4 light chain with D52N, G91A
# B9: P043.A.00095.D06 (protein sample ID 470) (antibody, V domains shown)
# VH: QEQLEESGGDLVKPEGSLTLTCTASGFSFSSNYWICWVRQAPGKGLEWIGCIYIGSGDTYYASWAKGRFTISKTSSTTVTLQMTSLTAADTATYFCARSYTPGSYYNMNLWGPGTLVTVSS
# VL: DVVMTQTPSSVSAAVGGTVTINCQASQQISNELSWYQQKSGQPPKLLIYDASDLASGVPSRFKGSGSGTEFTLTISDLESADAATYYCQSTGGASSDGNAFGGGTEVVVK
# Tests used:
# [1] = molecular target: T1, SARS-CoV-2 spike protein (wild-type) on VSV pseudovirus (SARS-CoV-2), P0DTC2
# [2] = molecular target: T1, SARS-CoV-2 spike protein (wild-type) on …; remark: listed apart in the source
# [3] = molecular target: T1, SARS-CoV-2 spike protein (wild-type) on …; remark: listed apart in the source
# [4] = molecular target: T1, SARS-CoV-2 spike protein (wild-type) on …; remark: listed apart in the source
# [5] = molecular target: T1, SARS-CoV-2 spike protein (wild-type) on …; remark: listed apart in the source
# [6] = molecular target: T1, SARS-CoV-2 spike protein (wild-type) on …; remark: listed apart in the source
# [7] = molecular target: T1, SARS-CoV-2 spike protein (wild-type) on …; remark: listed apart in the source
# [8] = molecular target: T1, SARS-CoV-2 spike protein (wild-type) on …; assay: cell-based or functional assay
binder,measurement,setting,value
B1,"IC50 (pVNT, GFP-positive infected cells)",[1],3.9 µg/ml
same,"IC90 (pVNT, GFP-positive infected cells)",[1],18.2 µg/ml
same,"IC50, pVNT (luciferase RLU, VERO 76 cells), RiboMab in HEK 293T/17 supernatant",[2],169 ng/mL
same,"IC90, pVNT (luciferase RLU, VERO 76 cells), RiboMab in HEK 293T/17 supernatant",[2],7240 ng/mL
same,"IC50, pVNT (luciferase RLU), RiboMab in mouse serum, biological replicate 1",[3],740 ng/mL
same,"IC50, pVNT (luciferase RLU), RiboMab in mouse serum, biological replicate 2",[3],424 ng/mL
same,"IC90, pVNT (luciferase RLU), RiboMab in mouse serum, biological replicate 1",[3],6390 ng/mL
same,"IC90, pVNT (luciferase RLU), RiboMab in mouse serum, biological replicate 2",[3],4530 ng/mL
B2,"IC50 (pVNT, infected cells/16 fields)",[4],0.21 ng/ml
same,"IC90 (pVNT, infected cells/16 fields)",[4],1.05 ng/ml
B3,"IC50 (pVNT, infected cells/16 fields)",[4],0.46 ng/ml
same,"IC90 (pVNT, infected cells/16 fields)",[4],1.42 ng/ml
same,"IC50 (pVNT, infected cells/16 fields)",[5],0.4 µg/ml
same,"IC90 (pVNT, infected cells/16 fields)",[5],1.19 µg/ml
B4,"IC50 (pVNT, GFP-positive infected cells)",[1],0.31 µg/ml
same,"IC90 (pVNT, GFP-positive infected cells)",[1],3.79 µg/ml
B5,"IC50 (pVNT, GFP-positive infected cells)",[1],3.75 µg/ml
same,"IC90 (pVNT, GFP-positive infected cells)",[1],16.6 µg/ml
B6,"IC50 (pVNT, GFP-positive infected cells)",[1],4.74 µg/ml
same,"IC90 (pVNT, GFP-positive infected cells)",[1],20.6 µg/ml
same,"IC50, pVNT (luciferase RLU, VERO 76 cells), RiboMab in HEK 293T/17 supernatant",[2],406 ng/mL
same,"IC90, pVNT (luciferase RLU, VERO 76 cells), RiboMab in HEK 293T/17 supernatant",[2],3810 ng/mL
B7,"IC50 (pVNT, GFP-positive infected cells)",[1],1.19 µg/ml
same,"IC90 (pVNT, GFP-positive infected cells)",[1],5.35 µg/ml
B8,"IC50 (pVNT, GFP-positive infected cells)",[1],7.84 µg/ml
same,"IC90 (pVNT, GFP-positive infected cells)",[1],24.2 µg/ml
B9,"IC50 (pVNT, GFP-positive infected cells)",[1],0.28 µg/ml
same,"IC90 (pVNT, GFP-positive infected cells)",[1],2.28 µg/ml
same,"IC50, pVNT (luciferase RLU, VERO 76 cells), RiboMab in HEK 293T/17 supernatant",[2],189 ng/mL
same,"IC50 (read off the curve), Mouse #1",[6],0.05 µg/mL
same,"IC50 (read off the curve), Mouse #2",[6],0.05 µg/mL
same,"IC50, pVNT (luciferase RLU), RiboMab in mouse serum, biological replicate 1",[3],53.6 ng/mL
same,"IC50, pVNT (luciferase RLU), RiboMab in mouse serum, biological replicate 2",[3],51.8 ng/mL
same,"IC90, pVNT (luciferase RLU), RiboMab in mouse serum, biological replicate 1",[3],310 ng/mL
same,"IC90, pVNT (luciferase RLU), RiboMab in mouse serum, biological replicate 2",[3],284 ng/mL
same,IC50 (read off the curve),[7],0.2 µg/mL
same,"IC90, pVNT (luciferase), RiboMab 470 in HEK 293T/17 supernatant",[8],449 ng/mL
same,"IC90, pVNT (luciferase), RiboMab 470 in mouse serum",[8],297 ng/mL
